Our source for the Kd values is publication PMC8417293, “Impact of crowded environments on binding between protein and single-stranded DNA”.

Details in all cases: protein: recombinant; single strand
The target of data set [1] is T1, BsCspB (cold shock protein B) (UniProt P32081 1-67). In words: intrinsic Trp fluorescence quenching; dilute; 20 mM disodium phosphate pH 7.0, no added salt stated; fluorescence titration 298 K (0.5, 2.8 or 4 uM protein; table marks a/b not explained in the material); stopped-flow 288 K (60 or 300 nM protein); NMR 298 or 294.4 K with 5% D2O.
T1 sequence (P32081 whole entry): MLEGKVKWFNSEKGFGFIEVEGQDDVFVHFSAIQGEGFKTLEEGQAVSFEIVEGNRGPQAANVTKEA
The target of data set [2] is T1, BsCspB (cold shock protein B). Put plainly: intrinsic Trp fluorescence quenching; 300 g/L PEG1; 20 mM disodium phosphate pH 7.0, no added salt stated; fluorescence titration 298 K (0.5, 2.8 or 4 uM protein; table marks a/b not explained in the material); stopped-flow 288 K (60 or 300 nM protein); NMR 298 or 294.4 K with 5% D2O.
Data set [3] shares this target. In words: intrinsic Trp fluorescence quenching; dilute (series a); 20 mM disodium phosphate pH 7.0, no added salt stated; fluorescence titration 298 K (0.5, 2.8 or 4 uM protein; table marks a/b not explained in the material); stopped-flow 288 K (60 or 300 nM protein); NMR 298 or 294.4 K with 5% D2O.
Data set [4] shares this target. In words: intrinsic Trp fluorescence quenching; 300 g/L PEG1 (series a); 20 mM disodium phosphate pH 7.0, no added salt stated; fluorescence titration 298 K (0.5, 2.8 or 4 uM protein; table marks a/b not explained in the material); stopped-flow 288 K (60 or 300 nM protein); NMR 298 or 294.4 K with 5% D2O.
For data set [5] the target is unchanged. Put plainly: intrinsic Trp fluorescence quenching; 100 g/L PEG8; 20 mM disodium phosphate pH 7.0, no added salt stated; fluorescence titration 298 K (0.5, 2.8 or 4 uM protein; table marks a/b not explained in the material); stopped-flow 288 K (60 or 300 nM protein); NMR 298 or 294.4 K with 5% D2O.
Data set [6] has the same target. In words: intrinsic Trp fluorescence quenching; 200 g/L PEG1; 20 mM disodium phosphate pH 7.0, no added salt stated; fluorescence titration 298 K (0.5, 2.8 or 4 uM protein; table marks a/b not explained in the material); stopped-flow 288 K (60 or 300 nM protein); NMR 298 or 294.4 K with 5% D2O.
Data set [7] has the same target. Put plainly: intrinsic Trp fluorescence quenching; 200 g/L PEG8; 20 mM disodium phosphate pH 7.0, no added salt stated; fluorescence titration 298 K (0.5, 2.8 or 4 uM protein; table marks a/b not explained in the material); stopped-flow 288 K (60 or 300 nM protein); NMR 298 or 294.4 K with 5% D2O.
The target is the same in data set [8]. Put plainly: intrinsic Trp fluorescence quenching; 100 g/L PEG1 (series b); 20 mM disodium phosphate pH 7.0, no added salt stated; fluorescence titration 298 K (0.5, 2.8 or 4 uM protein; table marks a/b not explained in the material); stopped-flow 288 K (60 or 300 nM protein); NMR 298 or 294.4 K with 5% D2O.
For data set [9] the target is unchanged. Put plainly: intrinsic Trp fluorescence quenching; 300 g/L Dex20 (series a); 20 mM disodium phosphate pH 7.0, no added salt stated; fluorescence titration 298 K (0.5, 2.8 or 4 uM protein; table marks a/b not explained in the material); stopped-flow 288 K (60 or 300 nM protein); NMR 298 or 294.4 K with 5% D2O.
For data set [10] the target is unchanged. Put plainly: intrinsic Trp fluorescence quenching; 300 g/L Dex20 (series b); 20 mM disodium phosphate pH 7.0, no added salt stated; fluorescence titration 298 K (0.5, 2.8 or 4 uM protein; table marks a/b not explained in the material); stopped-flow 288 K (60 or 300 nM protein); NMR 298 or 294.4 K with 5% D2O.
The target is the same in data set [11]. In words: intrinsic Trp fluorescence quenching; 300 g/L glucose; 20 mM disodium phosphate pH 7.0, no added salt stated; fluorescence titration 298 K (0.5, 2.8 or 4 uM protein; table marks a/b not explained in the material); stopped-flow 288 K (60 or 300 nM protein); NMR 298 or 294.4 K with 5% D2O.
Data set [12] has the same target. Put plainly: intrinsic Trp fluorescence quenching; dilute (series b); 20 mM disodium phosphate pH 7.0, no added salt stated; fluorescence titration 298 K (0.5, 2.8 or 4 uM protein; table marks a/b not explained in the material); stopped-flow 288 K (60 or 300 nM protein); NMR 298 or 294.4 K with 5% D2O.
Data set [13] shares this target. In words: intrinsic Trp fluorescence quenching; 300 g/L ethylene glycol; 20 mM disodium phosphate pH 7.0, no added salt stated; fluorescence titration 298 K (0.5, 2.8 or 4 uM protein; table marks a/b not explained in the material); stopped-flow 288 K (60 or 300 nM protein); NMR 298 or 294.4 K with 5% D2O.
For data set [14] the target is unchanged. Put plainly: intrinsic Trp fluorescence quenching; 100 g/L Dex20 (series b); 20 mM disodium phosphate pH 7.0, no added salt stated; fluorescence titration 298 K (0.5, 2.8 or 4 uM protein; table marks a/b not explained in the material); stopped-flow 288 K (60 or 300 nM protein); NMR 298 or 294.4 K with 5% D2O.
Data set [15] shares this target. In words: intrinsic Trp fluorescence quenching; 200 g/L Dex20 (series b); 20 mM disodium phosphate pH 7.0, no added salt stated; fluorescence titration 298 K (0.5, 2.8 or 4 uM protein; table marks a/b not explained in the material); stopped-flow 288 K (60 or 300 nM protein); NMR 298 or 294.4 K with 5% D2O.

A word on the Kd: it is the equilibrium constant for the complex coming apart.

Regarding TTTT (ssDNA) [dT4], the values for the Kd in data set [1] and in [2] were 6100 ± 300 nM and 17000 ± 1100 nM, respectively.
Take TTTTTT (ssDNA) [dT6]: the Kd in data set [1] came out at 80 ± 10 nM; in data set [2], 580 ± 10 nM; in data set [3] it was 30 ± 10 nM; in data set [4], 415 ± 5 nM.
Consider TTTTTTT (ssDNA) [dT7], for which the Kd was found to be 15 ± 5 nM in data set [1]; 14 ± 7 nM in [5]; 75 ± 15 nM in [6]; 90 ± 20 nM in data set [7]; 570 ± 30 nM in data set [2]; 7 ± 3 nM in data set [3]. For the same molecule, the equilibrium dissociation constant (Kd) in [8] turned out to be 10 ± 10 nM; in [4] it was 170 ± 5 nM; in data set [9], 5 ± 3 nM; in data set [10] it was 6 ± 3 nM.
Consider TTTTT (ssDNA) [dT5], for which the Kd was found to be 750 ± 50 nM in data set [1]; 3800 ± 100 nM in [2]; 1310 ± 20 nM in data set [11]; 780 ± 10 nM in data set [12]; 5.1 ± 0.4 µM in data set [13]; 710 ± 20 nM in data set [14]. In addition, the Kd in data set [15] came out at 680 ± 20 nM; in data set [10], 350 ± 50 nM.
